23 sequences from the DeepSol protein solubility set can be followed below.

This data set is described as follows: soluble on expression in E. coli; label from the status in PepcDB or PDB records.
In the case of “MGSSHHHHHHSSGRENLYFQGHMHALSPLALAALIVATAPAFADEAKKPGTVFKDCKDCPEMVVLPAGSFTMGTPDDEVGRQPDEGPLHDVTFAKPFAISRYQVTAGELDAYLKATGVKLADGDTRPGRECIAGKPRYQQGPRQPAVCVDYNDVKNYAAWLSKKTGKRYRMLSEAEREYGARAGSAGPFPFPFDEGKEYSIAKHANTYGASDGYNFTSPVGSFPPNAFGVYDMHGNVYEWVADCWHDHYNGAPSDGSAWMEEKCELVQIRGNDWGEPPIFSRSGNRNNAAPSDRGDWIGFRVAREL”, the “soluble on expression in E. coli” value is “soluble”.
With “MSLDEIKIEKLKKLDKKALNELIDVYMSGYEGLEEYGGEGRDYARNYIKWCWKKASDGFFVAKVGDKIVGFIVCDKDWFSKYEGRIVGAIHEFVVDKKFQGKGIGRKLLITCLDFLGKYNDTIELWVGEKNYGAMNLYEKFGFKKVGKSGIWVRMIKRQNLEGHHHHHH”, the “soluble on expression in E. coli” value is “soluble”.
Regarding “MSLQVSKFKNLPKIELHLHLDCSLSYDVVKKIDPTVDIKHYKSSFQAGESCSSLKDYLKCADNAIELMQTKENLQFIVEDLFKQLHDDNVIYAEIRFAPLLHCEGDLNAKKVVDIICMSALIQSKKYNIDYGLILCTLRHYSEDESLKTVKLVKEFSEKGVVGFDIAADEAGYPIDNHIKAFTYAKNNNLNITAHAGEAKGSESIWETINKLYAKRIGHGVRCLEDKKLVKFLSDNNYHLEICLTSNIKTNTFDLFTDHPINEIYDSSISLSLNTDGRAISNTSLSKEYAIAHSELNWSMKKIIQSNLNAIEHAFTTNEKKEKLRKHLKSFSEGHHHHHH”, the “soluble on expression in E. coli” value is given as “soluble”.
Then “MGSDKIHHHHHHMTIDTSFNFKSDTPAEKDPDTWSPTLAAYHKLLWSKSLPNGRVFTLEYEKPPFYLRHRSDVGEFCLSSDTVVPSFRKKTIDGVAKDEMNFGGLGYTIGGMMVFPAIPIERKWTINQARGCNRKISDRFDLTVECIRRYYSDAQSPLDDVLRRYVDFFTLFRDFAGYVEFFHLQDVVNSDFTAVKFFLPFEDFEATSPIPQSRDAYLQYRSAAIDFLNARNQRIQNWVAKNIKG”, with “not soluble”; and “GRRIQGQRRGRGTSTFRAPSHRYKADLEHRKVEDGDVIAGTVVDIEHDPARSAPVAAVEFEDGDRRLILAPEGVGVGDELQVGVDAEIAPGNTLPLAEIPEGVPVCNVESSPGDGGKFARASGVNAQLLTHDRNVAVVKLPSGEMKRLDPQCRATIGVVGGGGRTDKPFVKAGNKHHKMKARGTKWPNVRGVAMNAVDHPFGGGGRQHPGKPKSISRNAPPGRKVGDIASKRTGRGGNE”, with “soluble”.
In the case of “MDLIAPEDVVVTLSHAGYAKRQPVSAYRAQRRGGRGRSAASTKEEDFIDQLWLVNTHDTLLTFTSSGKVFWLPVHQLPEAGSNARGRPIINWIPLESGERVQAVLPVREYADNRYVFMATRNGTVKKTPLSEFAFRLARGKIAINLDEGDALVGVALTDGDRDVLLFASNGKTVRFGESTVRSMGRTATGVRGIRLAKGEEVVSLIVSERAGGVEDEVEDESAEEVVETTDGAEPAVIDVADNGDVAYILTATENGYGKRTPLAEYPRKGRGTQGVIGIQTTERNGKLVRAVLLGSTDEVMLISDGGTLVRTRGSEISRVGRNTQGVTLIRLSKGEKLQAVERLDASLEEPEDVVDEAVAITSDAPPAEG”, the “soluble on expression in E. coli” value is on record as “soluble”.
In the case of “MFQVPDSEGGRAGSRAMKPPGGESSNLFGSPEEATPSSRPNRMASNIFGPTEEPQNIPKRTNPPGGKGSGIFDESTPVQTRQHLNPPGGKTSDIFGSPVTATSRLAHPNKPKDHVFLCEGEEPKSDLK”, the “soluble on expression in E. coli” value is listed as “not soluble”.
Turning to “MSLELLSNRLEFLREAERLKDVLRSAHTSSGRPESTAEHSWRLCLMALAFEDQLAGLDLGKVLRMCVVHDLGEAIHGDIPAVEQAAHPDKGEQERADLLQLTRHLDAPLRDRLLALWDEYERGESAEALAVKALDKLETLLQHTQGDNPADFDYAFNLDYGRRYTDRAPLFKTLRELLDARTRQRLAVRRDA”, the “soluble on expression in E. coli” value is listed as “not soluble”.
On to “ITLKVAIYPYVPDPARFQAAVLDQWQRQEPGVKLEFTDWDSYSADPPDDLDVFVLDSIFLSHFVDAGYLLPFGSQDIDQAEDVLPFALQGAKRNGEVYGLPQILCTNLLFYRKGDLKIGQVDNIYELYKKIGTSHSEQIPPPQNKGLLINMAGGTTKASMYLEALIDVTGQYTEYDLLPPLDPLNDKVIRGLRLLINMAGEKPSQYVPEDGDAYVRASWFAQGSGRAFIGYSESMMRMGDYAEQVRFKPISSSAGQDIPLFYSDVVSVNSKTAHPELAKKLANVMASADTVEQALRPQADGQYPQYLLPARHQVYEALMQDYPIYSELAQIVNKPSNRVFRLGPEVRTWLKDAKQVLPEALGLTDVSSLAS”, for which the “soluble on expression in E. coli” value was “soluble”.
As for “MRLPDAGFRRYIVVAGRRNVGKSSFMNALVGQNVSIVSEYAGTTTDPVYKSMELYPVGPVTLVDTPGLDDVGELGRLRVEKARRVFYRADCGILVTDSEPTPYEDDVVNLFKEMEIPFVVVVNKIDVLGEKAEELKGLYESRYEAKVLLVSALQKKGFDDIGKTISEILPGDEEIPYLGDLIDGGDLVILVVPIDLGAPKGRLIMPQVHAIREALDREAIALVVKERELRYVMENIGMKPKLVITDSQVVMKVASDVPEDVELTTFSIVESRYRGDLAYFVESVRKIEELEDGDTVVIMEGCTHRPLTEDIGRVKIPRWLVNHTGAQLNFKVIAGKDFPDLEEIEGAKLIIHCGGCVLNRAAMMRRVRMAKRLGIPMTNYGVTISYLHGVLDRAIRPFREEVKVLEHHHHHH”, the “soluble on expression in E. coli” value is on record as “soluble”.
In the case of “MSAKEKFTSLSPAEFFKRNPELAGFPNPARALYQTVRELIENSLDATDVHGILPNIKITIDLIDDARQIYKVNVVDNGIGIPPQEVPNAFGRVLYSSKYVNRQTRGMYGLGVKAAVLYSQMHQDKPIEIETSPVNSKRIYTFKLKIDINKNEPIIVERGSVENTRGFHGTSVAISIPGDWPKAKSRIYEYIKRTYIITPYAEFIFKDPEGNVTYYPRLTNKIPKPPQEVKPHPYGVDREEIKILINNLKRDYTIKEFLVNEFQSIGDTTADKILELAGLKPNKKVKNLTEEEITRLVETFKKDEDFRSPSADSLSVIGEDLIELGLKKIFNPDFAASITRKPKAYQGHPFIVEAGVAFGGSIPVGEEPIVLRYANKIPLIYDEKSDVIWKVVEELDWKRYGIESDQYQMVVMVHLCSTKIPYKSAGKESIAEVENIEKEIKNALMEVARKLKQYLSEKRKEQEAKKKLLAYLKYIPEVSRSLATFLASGNKELVSKYQNEISEGLFKLISKKLDLINIEEYRKVYRVDSE”, the “soluble on expression in E. coli” value is given as “soluble”.
Then “TSALIERIDAIIVDLPTIRPHKLAMHTMQQQTLVVLRVRCSDGVEGIGEATTIGGLAYGYESPEGIKANIDAHLAPALIGLAADNINAAMLKLDALAKGNTFAKSGIESALLDAQGKRLGLPVSELLGGRVRDSLEVAWTLASGDTARDIAEARHMLEIRRHRVFKLKIGANPVEQNLKHVVTIKRELGDSASVRVDVNQYWDESQAIRACQVLGDNGIDLIEQPISRINRGGQVRLNQRTPAPIMADESIESVEDAFSLAADGAASIFALKIAKNGGPRAVLRTAQIAEAAGIGLYGGTMLEGSIGTLASAHAFLTLRQLTWGTELFGPLLLTEEIVNEPPQYRDFQLHIPRTPGLGLTLDEARLARFARR”, with “soluble”; and “MSNVMDLNLIQTFLVVAEFQSYTKAAEQLGLTQPAVSAAIKRLEQVVDKQLFVKKGRGITLTSAAYQLLPQFEQAVSIIDNAIMEKKHFEVCCSEILLHIMSPIKNAIFYESPPEKYILFELLRQQKVDLVIDTVVTKDAAFVMEEAYEEKAVIICREQHPRIQGTLSKEQFYDETHCLFSGKWNNMSGFEQLAQETILER”, with “not soluble”.
For “MPKSEIRKLLQEIKKQVDNPGNSSTTEIKKMASEAGIDEQTAEEIYHLLTEFYQAVEEHGGIEKYMHSNISWLKIELELLSACYQIAILEDMKVLDISEMLSLNDLRIFPKTPSQLQNTYYKLKKELIQVEDIPKNKPGRKRKTQKNTKKEKTNIFGKVVPALEHHHHHH”, the “soluble on expression in E. coli” value is listed as “soluble”.
Consider “MSLKIGFFIMNIGSAGGTERVSINVANALAKQGYDVSFISIGGNKPFFQVDEKINIYAMNKLPYSLKKDYFSITKKLRELVKELQLDTLIVVDGAIMLFSALALVNLNIKHILWEHYSFNFTGNRLVRTLGKYLAVTTCDKIVTLTEAEKTLWQEKFKTNNIISIANPNTLLPKNKLAKLENKTILSVGHLFSYKGFDYLLKVWQVLAKKYPDWNLKIVGSGEEEENLKNLAKALDIEDSVNFIPRTNDVSFYYESSSIYCLPSQTEGLPLVVIEAMAFGLPIVAFNCSPGVKQLVEHKENGFLCEQNNIEEMVKGLDLLINNPELYLQMSDKSRLMSEDYGIEKIIEEWKGILEGHHHHHH”, for which the “soluble on expression in E. coli” value is reported as “soluble”.
To “HMFPARWHNYLQCGQVIKDSNLICFKTPLRPELFAYVTSEEDVWTAEQIVKQNPSIGAIIDLTNTSKYYDGVHFLRAGLLYKKIQVPGQTLPPESIVQEFIDTVKEFTEKCPGMLVGVHCTHGINRTGYMVCRYLMHTLGIAPQEAIDRFEKARGHKIERQNYVQDLLI” belongs “soluble”; to “MLIYEGHIDKLIRRGQEKGLDIYNLIRTAVFNPVEHYGLNVGLLREGDPADFIIVDNLKSFNILSTFIDGECVYENGKVLFPLEHHHHHH”, “not soluble”.
Then “MGHHHHHHSHMGVPYSVLEPVLERCTPDQLYRIEEYNHVLIEETDQLWKVHCHRDFKEERPEEYESWREMYLRLQDAREQRLRVLTKNIQFAHANKP”, with “soluble”; and “RIRKIIAGYQTELEASQEQEKKARQEKDELMRNMAHDLRTPLTGVMTYVDVMKLENEAYAENMKNLNFISEKVLDIRTQVDNLLDFSIAGSQRPVELDASMDVEYIFGDYLSDVCAQLMKSNYEVDAEGISFKQVKVAVNMAFLTRIFSNLTDNIYKYADNKKPVVMKTAFTKKTFSVEIGNGVCDNKTLLKSAGIGLKSVDAMMQRMNGSMSFKREHGKFWVKLEFPIV”, with “not soluble”; and “VKRGLKPIVGLNQHIQQISPEQMGIRLDPDSLPIELRELANKHNAMLDRLQTGFRRLSEFSSDIAHELKTPLTNITTQNQVILGACRTSEEYQDAIASTLEELNRITKTINDLLYIAKAENKLIHRHDEVFAVQEEIDRLVAYFEILAEDAEVRIVSSGDGQLYM”, with “not soluble”.
In the case of “MSLQEKNFSEEEIDDALSRCQAKNWQSDRRFSENYLNSRVQKGYGVGRIRQELRQLKGVSSDIIDEVLMESEIDWYEMAENLLRKKFPNYNEQQTPKMKQKIWQYMLSHGFRSDEFADLIGQNQSEWDEGHHHHHH”, the “soluble on expression in E. coli” value is “soluble”.
With “MKLTGKQTWEFENPLFVNSSGTAVGPKEKEGPLGHLFDKSYDEMHCNQKNWEMAERKLMEDAVQSALSKQNLKKEDIDIFLAGDLLNQNVTANYVARHLKIPFLCLFGACSTSMESIAISSALIDGGFAKRALAATSSHNATAERQFRYPTEYGGQKPGTATSTVTGSGAVVLSQQPGGIKITSATVGRVIDLGITDSQDMGSAMAPAAADTIKQHLEDLGRTPDDYDLILTGDLSGVGSPILKDLLKEEGINVGTKHNDCGLMIYTPDQQVFAGGSGCACSAVVTFAHIFKEIEAGRLNRVLVVATGALLSPTIIQQKESIPCIAHGVVFERAERGNALEHHHHHH”, the “soluble on expression in E. coli” value was “soluble”.
To “MGSDKIHHHHHHMSVPRWVAERTGLPRTAHDAGTIGAAGCTVNRFAVALMPDSGGHPRKPIAGVDAPPPHLLLVARRMTRPGEHMALTTYTPVITVFAAGREWTLERAADLQTLWDNMVEADFGDDERLPYWTELWPSSLVLADWLHDNAGRIRGRTCLDMGCGLGLCSLVGQWLGARVTGMDYEPEALFHARRNAERNRVPQPLWTVMDWRAPAVRRHAADLVWGGDIMYERRFVTPVLDFLDHVLAPCGAAWVAEPGRTVYNHFRETLDARGWHARRVLSSETASLYEQPESVTVHLWEITR” belongs “not soluble”.
